Assay results taken from article PMC4552487 (EMBO Reports, 2015).

Assays:
Conditions in all cases: both partners purified
[1] = target: T1, Parkin (80-465)-Biotin, wild type (UniProt O60260 80-465, biotin (position not given)); assay: AlphaScreen or HTRF; GST-Ubl (1-76) on glutathione acceptor beads and Parkin (80-465)-biotin (WT or H302A) on streptavidin donor beads, 10 nM each; inhibitor proteins in three-fold 10-point dilutions; PBS + 0.1% BSA + 0.1% Triton X-100; RT
T1 sequence (looked up): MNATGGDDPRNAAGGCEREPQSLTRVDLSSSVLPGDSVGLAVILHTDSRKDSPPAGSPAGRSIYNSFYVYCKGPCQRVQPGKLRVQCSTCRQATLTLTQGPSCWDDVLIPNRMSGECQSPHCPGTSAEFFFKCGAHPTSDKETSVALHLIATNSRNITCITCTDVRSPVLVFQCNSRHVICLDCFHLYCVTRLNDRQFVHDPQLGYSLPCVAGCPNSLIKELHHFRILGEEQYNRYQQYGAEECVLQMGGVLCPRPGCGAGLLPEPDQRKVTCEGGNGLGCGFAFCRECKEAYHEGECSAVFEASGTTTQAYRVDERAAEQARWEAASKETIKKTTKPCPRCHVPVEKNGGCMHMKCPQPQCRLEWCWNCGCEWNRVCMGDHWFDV

[2] = target: Ser65-phosphorylated ubiquitin (ubiquitin^Phospho-Ser65) (bovine, UniProt P0CG53 1-76, phosphoserine at 65); assay: ITC; ubiquitin^PhosSer65 in the syringe titrated into 50 μM wild-type or mutant Parkin in the cell; 50 mM HEPES pH 8.0, 150 mM NaCl, 500 μM TCEP; 20°C; single binding site model
[3] = target: Ser65-phosphorylated Dac-ubiquitin (Dac-ubiquitin^PhosSer65) (UniProt P0CG47 1-76, phosphoserine at 65 of ubiquitin); assay: SEC; Superdex 200 Increase 10/300 GL; 50 mM Tris pH 7.5, 150 mM NaCl; 100 μg of each protein, mixtures incubated for 30 min before chromatography

B1: GST-Ubl (Parkin Ubl domain, residues 1-76) (domain or fragment, UniProt O60260 1-76, looked up)
chain: MIVFVRFNSSHGFPVEVDSDTSIFQLKEVVAKRQGVPADQLRVIFAGKELRNDWTVQNCDLDQQSIVHIVQRPWRK
B1: binds [1].

B2: full-length Parkin Lys151Ala (K151A) mutant, untagged (enzyme, UniProt O60260 1-465, looked up)
chain: MIVFVRFNSSHGFPVEVDSDTSIFQLKEVVAKRQGVPADQLRVIFAGKELRNDWTVQNCDLDQQSIVHIVQRPWRKGQEMNATGGDDPRNAAGGCEREPQSLTRVDLSSSVLPGDSVGLAVILHTDSRKDSPPAGSPAGRSIYNSFYVYCAGPCQRVQPGKLRVQCSTCRQATLTLTQGPSCWDDVLIPNRMSGECQSPHCPGTSAEFFFKCGAHPTSDKETSVALHLIATNSRNITCITCTDVRSPVLVFQCNSRHVICLDCFHLYCVTRLNDRQFVHDPQLGYSLPCVAGCPNSLIKELHHFRILGEEQYNRYQQYGAEECVLQMGGVLCPRPGCGAGLLPEPDQRKVTCEGGNGLGCGFAFCRECKEAYHEGECSAVFEASGTTTQAYRVDERAAEQARWEAASKETIKKTTKPCPRCHVPVEKNGGCMHMKCPQPQCRLEWCWNCGCEWNRVCMGDHWFDV
Work on B2 yielded a Kd [2] of ~7 µM.

B3: Parkin 1-465 S65A (enzyme, UniProt O60260 1-465, looked up)
chain: MIVFVRFNSSHGFPVEVDSDTSIFQLKEVVAKRQGVPADQLRVIFAGKELRNDWTVQNCDLDQQAIVHIVQRPWRKGQEMNATGGDDPRNAAGGCEREPQSLTRVDLSSSVLPGDSVGLAVILHTDSRKDSPPAGSPAGRSIYNSFYVYCKGPCQRVQPGKLRVQCSTCRQATLTLTQGPSCWDDVLIPNRMSGECQSPHCPGTSAEFFFKCGAHPTSDKETSVALHLIATNSRNITCITCTDVRSPVLVFQCNSRHVICLDCFHLYCVTRLNDRQFVHDPQLGYSLPCVAGCPNSLIKELHHFRILGEEQYNRYQQYGAEECVLQMGGVLCPRPGCGAGLLPEPDQRKVTCEGGNGLGCGFAFCRECKEAYHEGECSAVFEASGTTTQAYRVDERAAEQARWEAASKETIKKTTKPCPRCHVPVEKNGGCMHMKCPQPQCRLEWCWNCGCEWNRVCMGDHWFDV
B3: binds [3].
